From the supplement of paper PMC10567573

B1: ALDH8A1 (parent)
chain: RVAKKLQSGLVWTNCWLIRELNLP
B2: DULLARD (parent)
chain: LVVFTASMEIYGSAVADKLDNSRS

Variants of: B1
Test: protein stability index of a GFP-peptide fusion (GPS, HEK-293T) (PSI 1-6); higher = more stable
Settings: c terminus: a fixed tail appended
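Further: lentivirally expressed fusions sorted by FACS into six bins by GFP to DsRed ratio, PSI derived from sequencing read proportions per bin multiplied by bin number.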

Row | Variant | protein stability index
1 | G9W | 2.58
2 | G9T | 3.22
3 | G9E | 1.72
4 | Q7K | 2.17
5 | Q7N | 2.29
6 | Q7Y | 2.48
7 | Q7P | 2.97
8 | V2W | 2.54
9 | V2D | 1.92
10 | V2P | 2.08
11 | V2I | 3.68
12 | V2E | 1.9
13 | V2S | 3.15
14 | V2H | 4.07
15 | V2K | 1.36
16 | L10T | 2.97
17 | L10R | 2.47
18 | L10D | 1.51
19 | L6A | 2.04
20 | L6P | 1.95
21 | L6E | 2.26
22 | L6M | 3.2
23 | L6T | 2.31
24 | L6K | 2.56

Row | Variant | protein stability index
25 | L6C | 3.03
26 | I18P | 1.3
27 | I18T | 2.57
28 | I18E | 2.2
29 | I18S | 3.62
30 | I18Y | 1.89
31 | I18M | 2.47
32 | I18H | 1.89
33 | I18N | 2.46
34 | I18K | 4.38
35 | W12T | 1.61
36 | W12V | 1.67
37 | W12Q | 1.18
38 | W12K | 2.27
39 | W12H | 2.37
40 | W12P | 3.58
41 | W12S | 2.38
42 | L21W | 2.9
43 | L21D | 3.05
44 | L21G | 5.81
45 | A3W | 2.5
46 | A3I | 3.48
47 | A3R | 2.03
48 | A3E | 3.61

Row | Variant | protein stability index
49 | A3M | 3.44
50 | A3Y | 1.16
51 | A3P | 3.51
52 | R19S | 2.44
53 | R19P | 1.53
54 | R19N | 3.94
55 | L17F | 2.6
56 | L17N | 1.33
57 | L17D | 3.58
58 | L17Q | 1.32
59 | L17I | 1.08
60 | C15V | 2.65
61 | C15L | 2.64
62 | C15R | 3.14
63 | C15A | 2.39
64 | C15P | 2.17
65 | C15E | 1.8
66 | V11W | 4.66
67 | V11P | 2.11
68 | L23Q | 3.48
69 | L23M | 3.59
70 | L23E | 2.88
71 | K5Q | 1.34
72 | K5V | 4.01

Row | Variant | protein stability index
73 | K5T | 2.88
74 | K5C | 3.67
75 | K5L | 3.02
76 | K5M | 3.19
77 | K5Y | 3.1
78 | R1V | 2.44
79 | R1H | 2.09
80 | R1C | 1.74
81 | R1N | 3.5
82 | R1D | 2.04
83 | R1P | 2.46
84 | R1K | 3.98
85 | R1L | 5
86 | E20M | 1.33
87 | E20T | 3.57
88 | E20P | 2.22
89 | P24Y | 3.16
90 | P24W | 3.34
91 | P24S | 2.25
92 | P24A | 2.76
93 | N22I | 3.01
94 | N22D | 5.55
95 | S8I | 1.71
96 | S8H | 1.63

Row | Variant | protein stability index
97 | S8E | 2.9
98 | S8V | 3.65
99 | W16A | 2.71
100 | W16N | 2.1
101 | W16L | 1.85
102 | W16H | 1.92
103 | W16T | 2.09
104 | W16K | 2.08
105 | W16P | 1.22
106 | W16G | 1.32
107 | W16D | 1.63
108 | K4W | 3.14
109 | K4L | 1.98
110 | K4F | 2.22
111 | K4N | 4.07
112 | N14V | 1.22
113 | N14K | 2.73
114 | N14M | 2.04
115 | N14Y | 1.59
116 | T13E | 1.95
117 | T13K | 2.59

Variants of: B2
Test: as above
Settings: c terminus: a fixed tail appended

Row | Variant | protein stability index
118 | N21G | 1.8
119 | N21P | 3
120 | N21S | 4.01
121 | N21K | 3.06
122 | N21A | 2.08
123 | N21T | 2.67
124 | N21R | 2.68
125 | N21D | 2.47
126 | N21V | 1.5
127 | R23V | 2.42
128 | R23T | 2.68
129 | R23G | 1.66
130 | R23P | 2.61
131 | R23K | 1.71
132 | R23D | 1.75
133 | R23E | 2.94
134 | R23C | 2.03
135 | R23H | 2.77
136 | R23S | 2.05
137 | R23Q | 1.86
138 | R23F | 2.67
139 | S22Y | 2.24
140 | S22A | 2.39
141 | S22K | 2.58
142 | S22G | 2.5

Row | Variant | protein stability index
143 | S22D | 2.71
144 | S22I | 2.37
145 | S22T | 1.89
146 | S22R | 3.98
147 | S22P | 2.62
148 | S22M | 2.31
149 | S22E | 4.27
150 | D20Y | 2.51
151 | D20R | 1.2
152 | D20Q | 3.44
153 | D20S | 3.14
154 | D20L | 2.95
155 | D20P | 2.48
156 | D20V | 2.63
157 | D20T | 2.02
158 | D20N | 1.6
159 | S24T | 2.71
160 | S24E | 2.29
161 | S24L | 2.2
162 | S24R | 1.88
163 | S24A | 2.29
164 | S24C | 2.69
165 | S24H | 2.46
166 | S24I | 1.3
167 | S24Q | 2.15
